Source: publication PMC7280789, “Isotype Switching Converts Anti-CD40 Antagonism to Agonism to Elicit Potent Antitumor Activity” (Cancer Cell, 2020)

Key:
[1] = target: T1, full-length hCD40 expressed on CHO-k1 cells (Homo sapiens, UniProt P25942); assay: flow cytometry on cells; CHO-k1 cells expressing full-length hCD40 or truncated variants CRD2-4 or CRD3-4 incubated with 10 μg/mL anti-CD40 mAb; bound mAb detected by anti-human Fc-PE; conditions: one partner purified
T1 construct: CD40, human; results call it the full-length CD40 molecule; methods: wild-type full-length extracellular (EC) domain (CRD1-4) cloned into pCIpuro that contains the CD40 transmembrane domain for membrane anchoring; also called full-length CD40 molecule; CRD1-4; source: CHO-k1, stably transfected (pCIpuro), on cells

[2] = target: T2, hCD40 truncated variant CRD2-4 expressed on CHO-k1 cells (Homo sapiens, UniProt P25942, point mutant); assay: as above; conditions: one partner purified
T2 construct: CD40, human, truncated variant CRD2-4 (lacks CRD1), with the CD40 transmembrane domain of the vector; source: CHO-k1, stably transfected (pCIpuro), on cells

[3] = target: T3, hCD40 truncated variant CRD3-4 expressed on CHO-k1 cells (Homo sapiens, UniProt P25942, point mutant); assay: as above; conditions: one partner purified
T3 construct: CD40, human, truncated variant CRD3-4 (lacks CRD1 and CRD2), with the CD40 transmembrane domain of the vector; source: CHO-k1, stably transfected (pCIpuro), on cells

[4] = target: T4, His-tagged recombinant soluble full-length extracellular domain (EC) of hCD40 (Homo sapiens, UniProt P25942); assay: far-Western, overlay or dot blot; western blot: His-tagged recombinant CD40 proteins run on 18% polyacrylamide gels, transferred to nitrocellulose, incubated with the anti-CD40 mAb at 4°C overnight, detected with goat anti-human IgG-HRP; conditions: both partners purified
T4 construct: CD40, human, wild-type full-length extracellular (EC) domain (CRD1-4); Used in the western blot and, as 'hCD40 EC domain', in the SEC/SEC-SAXS complex with 341G2 F(ab); also called hCD40 EC domain; CD40EC; source: FreeStyle 293F, transfected (pcDNA3.1), purified from supernatant (Ni-NTA)

[5] = target: T4, His-tagged recombinant soluble …; assay: SEC; 341G2 F(ab) and hCD40 EC domain mixed at a 1:1 molar ratio for 1 hour, complex purified by SEC; then SEC-SAXS on Superdex 200 increase 3.2/200 in PBS, 20°C; conditions: both partners purified
CD40 on Ramos cells = target: T5, CD40 on Ramos cells (Homo sapiens (Ramos cells), UniProt P25942); assay: flow cytometry on cells; Ramos cells incubated with a fixed concentration of CD40L and various concentrations of anti-CD40 mAbs; remaining bound CD40L detected by anti-FLAG-APC; conditions: one partner purified
T5 construct: CD40 on the surface of Ramos cells; also called CD40-expressing Ramos cells; source: endogenous, on Ramos cells

[6] = target: T6, hCD40 (immobilised for SPR) (Homo sapiens, UniProt P25942); assay: SPR; Biacore T100; hCD40 immobilised on a CM5 chip by amine coupling; mAbs injected at 250, 50, 10, 2, 0.4 and 0 nM in HBS-EP+, 30 μL/min, 300 s association, 300 s dissociation; 1:1 Binding model; conditions: both partners purified
T6 construct: CD40, human
T6 sequence (P25942 21-277): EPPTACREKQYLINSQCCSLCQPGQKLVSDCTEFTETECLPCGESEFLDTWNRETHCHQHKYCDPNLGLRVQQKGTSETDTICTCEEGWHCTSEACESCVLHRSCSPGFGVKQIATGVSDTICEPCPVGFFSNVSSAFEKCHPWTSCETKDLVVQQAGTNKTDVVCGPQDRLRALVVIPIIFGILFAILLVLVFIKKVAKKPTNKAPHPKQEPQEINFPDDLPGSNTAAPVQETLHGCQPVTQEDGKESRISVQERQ

T4 sequence (P25942 21-193): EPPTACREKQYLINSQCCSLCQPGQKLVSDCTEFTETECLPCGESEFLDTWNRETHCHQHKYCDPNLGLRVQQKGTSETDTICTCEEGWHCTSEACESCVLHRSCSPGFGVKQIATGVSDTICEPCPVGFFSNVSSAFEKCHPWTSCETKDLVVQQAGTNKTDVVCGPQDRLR
T5 sequence (P25942 21-277): as the sequence (P25942 21-277) above
T3 sequence (P25942 whole entry, looked up, change not shown, the tested form may be a part): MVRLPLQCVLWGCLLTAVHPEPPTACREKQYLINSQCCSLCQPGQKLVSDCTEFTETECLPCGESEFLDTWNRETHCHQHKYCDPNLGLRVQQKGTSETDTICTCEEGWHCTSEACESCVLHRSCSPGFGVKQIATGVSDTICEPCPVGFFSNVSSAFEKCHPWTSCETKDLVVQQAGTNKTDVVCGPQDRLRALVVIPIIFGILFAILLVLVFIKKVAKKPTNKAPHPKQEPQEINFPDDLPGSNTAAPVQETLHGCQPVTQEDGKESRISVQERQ
T2 sequence (P25942 whole entry, looked up, change not shown, the tested form may be a part): as above
T1 sequence (P25942 whole entry, looked up, the tested form may be a part): as the sequence (P25942 whole entry, looked up, change not shown, the tested form may be a part) above

B1: 341G2 (anti-CD40 mAb; isotype not stated for these experiments) (antibody, V domains shown)
VH: QVQLQQSGPGLVKPSQTLSLTCAISGDSVSSNSATWNWIRQSPSRDLEWLGRTYYRSKWYRDYVGSVKSRIIINPDTSNNQFSLQLNSVTPEDTAIYYCTRAQWLGGDYPYYYSMDVWGQGTTVTVSS
VL: EIVLTQSPATLSLSPGERATLSCRASQSVSSYLAWYQQKPGQAPRLLIYDASNRATGIPARFSGSGSGTDFTLTISSLEPEDFAVYYCQQRSNTFGPGTKVDIK
notes: 341G2 heavy chain; 341G2 light chain; also called bleselumab; source: produced either from hybridoma cells or by transient expression in CHO cells, purified on protein A columns; copies: 2 + 2
What does the source list for B1?
binding result [1]: binds; binding result [2]: no binding (tested: 10 μg/mL); binding result [3]: no binding (tested: 10 μg/mL); binding result [4]: binds

B2: 341G2 F(ab) (Fab, V domains shown)
VH: B1 VH
VL: B1 VL
notes: may stand in the SASBDB entry of the CD40-341G2 F(ab) complex; may stand in SASBDB SASDHN8; also called F(ab) fragment of 341G2 hIgG1; source: digestion of 341G2 hIgG1 with papain-agarose, protein A depletion of IgG1 and Fc, purified by SEC
Does B2 bind [5]?
Result: binds

B3: 341G2 hIgG1 (antibody, V domains shown)
VH: B1 VH
VL: B1 VL
notes: 341G2 heavy chain variable domain; human IgG1 heavy chain constant region (pEE6.4 vector encoding the isotype); may stand in SASBDB SASDHN8; IgG1; also called 341G2 h1; hIgG1 variant of 341G2; source: produced either from hybridoma cells or by transient expression in CHO cells, purified on protein A columns; copies: 2 + 2
Does B3 bind (CD40 on Ramos cells)?
Result: binds

B4: 341G2 hIgG4 (parental 341G2) (antibody, V domains shown)
VH: B1 VH
VL: B1 VL
notes: 341G2 heavy chain variable domain; human IgG4 heavy chain constant region (pEE6.4 vector encoding the isotype); may stand in SASBDB SASDHN8; IgG4; also called 341G2 h4; bleselumab; source: produced either from hybridoma cells or by transient expression in CHO cells, purified on protein A columns; copies: 2 + 2
Does B4 bind (CD40 on Ramos cells)?
Result: binds

Does B4 bind [6]?
Result: binds
